# In the supplement of paper PMC7125110:
# ± gives the standard error. This sample holds only a part of the variants without activity.
# B1: glmS ribozyme (parent)
# chain: AUAAAAGCGCCAGAACUACAGAAAUGUAGUUGACGAGGAGGAGGUUUAUCGAAUUUUCGGCGGAUGCCUCCAAA
# Variants of: B1
# Experiment: self-cleavage kobs at 10000 uM GlcN6P; higher = faster cleavage; RNA array
# Settings: with glucosamine-6-phosphate
# Outline: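 Tiles of sequenced MiSeq chips were imaged over ~14 h at 37 °C. On them, barcoded ribozyme variants had been transcribed in situ by E. coli RNA polymerase and were tracked via a hybridised Cy3 probe while glucosamine-6-phosphate (40 μM to 10 mM) in HEPES/KCl/Mg(OAc)2 buffer flowed in. Per-tile medians, normalised to baseline and to non-cleaving reference variants, were fit to one- or two-exponential decays for kobs, and weighted Michaelis–Menten fits gave kcat and KM.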
row,Variant,self-cleavage kobs at 10000 uM GlcN6P [s⁻¹]
1,AUAAAAGCGCCCGAUCUACAGAAAUGUAGUUGACGAGGAGGAGGUUUAUCGAAUUUUGGGCGGAUGCCUCCAAA,0.00016 ± 3.5e-05
2,AUAAAAGCGCCAGAACUACAGAAAUGUAGUUGACGAGGAGGAGUUUUAUCGAAUUUUCGGCGGCUGCCUUCAAA,< 1e-05
3,AUAAAAGCGCCAGAACUACAGAAAUGUAGUCGACGAGGACGAGGUUUAUCGAGUUUUCGGCGGAUGCCUCCAAA,0.000261 ± 9.7e-05
4,AUAAAAGUGCCAGAACUACAGAAAUGUAGUUGACGAGGAGGAGGUUUAUCGAAAUUUCGGCGGAUGCCACCAAA,0.00115 ± 0.00055
5,AUAAAAGCGCCAGAUCUACAGAAAUGUAGUUGACGAGGAGGAGGUUUAUAGAAUUUUCGGCGGAUGUCUCCAAA,< 1e-05
6,AUAAAAGCGCCAGAAGUACAGAAAUGUAGUUGACGAGGAGGGGGUUUAUCGAAUUUUCGGCGGAUGCCUCUAAA,0.00126 ± 0.00039
7,AUAAAAGCGCCAGAACUACCGAAAUGUAGUUGACGAGGAGGAGUUUUAUCGAAUUUUCGGCGGAUGCCUCCAAA,0.000286 ± 8.9e-05
8,AUAAAAGCGCCAGAACUACAGAAAUGUAGUCGACGAGGAGGAGGUUUCUCGAAUUUUCGGCGGAUGCCUCCAAA,3.72e-05 ± 7.7e-06
9,AUAAAAGCGCCCGAACUACAGAAAUGUAGUUAACAAGGAGGAGGUUUAUCCAAUUUUCGGCGGAUGCCUCCAAA,< 1e-05
10,AUAAAAGCGCCAGAACUACAGAAAUGUAGUUGACGAGGAGGGGGCCUAUCGAAUUUUCGGCGGAUGCCUCCAAA,0.00102 ± 0.00019
11,AUAAAAUCGCCAGAUCUACAGAAAUGUAGUUGACGAGGAGGAGGUUUAUCGAAUUUUCGGCGGAUGCCUGCAAA,3.63e-05 ± 1.7e-05
12,AUAAAAGCGCCCGAACUACAGAAAUGUAGUUGACGAGGAGAAGGUUUAUCGAAUUUUCGGCGGAUGACUCCAAA,7.76e-05 ± 2.9e-05
13,AUAAAAGCACCAGAACUACAGAAAUGUAGAUGACGAGGAGGAGGUUUAUCGAAUUUUCGGCGGAUGCCUACAAA,< 1e-05
14,AUAAAAGCGCCCGAACUACAGAAAUGUAGUUGACGAGGAGGAGGUCUAUCUAAAUUUCGGCGGAUGCCUCCAAA,< 1e-05
15,AUAAAAGCGCCAGAACUACAGAAAUGUAAUUGACGAGGACGAGAUUUAUCGAAUUUUCGGCGGAUGCCUCCAAA,< 1e-05
16,AUAAAAGCGCCAGAACUACAGAAAUGUAGUUGACGAGGAGGAGGUUUAUCGAAUUUUCGGCGAUUGCUUCCAAA,< 1e-05
17,AUAAAAGCGCCAGUACUACAGAAAUGUAGUUGACGAGGAGGAGGUUUAUCGUACUUUCGGCGGAUGCCUCCAAA,0.000114 ± 1.6e-05
18,AUAAACGCGCCAGAACUACAGAAAUGUAGUUAACGAGGAGGAUGUUUAUCGAAUUUUCGGCGGAUGCCUCCAAA,< 1e-05
19,AUAAAAGCGCCAGAACUACAGAAAUGUAGUUGACGAGAUGGAGGUUUAUCGAAAUUUCGGCGGAUGCCUCCAAA,< 1e-05

row,Variant,self-cleavage kobs at 10000 uM GlcN6P [s⁻¹]
1,AUAAAAGCGCCAGAGCUACAGAAAUGUAGUUGACGAGGAGGAGGUUUAUCGAACUUUCGGCGGAUGCCUCGAAA,0.000924 ± 0.00024
2,AUAAAAGCGCCAGAACUACAGAAAUGUAGUUGACGCGGAGGAGGUUUAUCGAACUUUCGUAUGAUGCCUCCAAA,< 1e-05
3,AUAAAAGCGCCAGAACUACAGAAAUGUAGUUGACGAGGAGGAGGUUUAUUGAAUUUUCGUCGGAUGCCUACAAA,< 1e-05
4,AUAAAAGCGCCAGAACUACAGAAAUGUAGUUGACGAUGAGGAGGUUUAUCGGAUUUUCGGCGGCUGCCUACAAA,< 1e-05
5,AUAAAAGUGCCAGAACUACAGAAAUGUAGUUGACGACGAGGAGGUUUAUAGAAUUUUCCGCGGCUGCCUCCAAA,< 1e-05
6,AUAAAAGCGCCAGAACUACAGAAAUGUAGUUGACGAGGAGGAUGUUUAUCGAAUUUUCGGCAGAUGCCUCCAAA,< 1e-05
7,AUAAAAGCGCCAGAACUACAGAAAUGUAGGUGACGAGGAGGAGGUCUAUCUAAUUUUCGGCGGAUGCCUCUAAA,< 1e-05
8,AUAAAAGCGCCAGAUCUACAGAAAUGUACUUGACGAGGAGGAGGUUUAUCGAAUUUUAGGCGGAUGCCUCCAAA,6.87e-05 ± 2.7e-05
9,AUAAAAGCGCCAGAACUACAGAAAUGUAGUUGACGAGGAGGAGUUUUAUCGAACUUUCGGCGGAUGCCUCCAAA,0.000226 ± 5e-05
10,AUAAAAGCGCCAGAACUACAGAAAUGUAGUUUACGAGGAGGAGGUUUAUCGAAUUAUAGGCGGAUGCAUCCAAA,0.000114 ± 2.2e-05
11,AUAAAAGCGCCAGAACUACAGAAAUGUAGUUGACGAGGAGGCGGCUUAUUGAAUUUUCGGCGGAUGCCUCCAAA,< 1e-05
12,AUAAAAGCGCCAGAACUACAGAAAUGUAGUUGACGAGGAGCAGGUUUAUAGAAUUUUCGGCUGAUGCCUCCAAA,< 1e-05
13,AUAAAAGCGCCAGAAUUACAGAAAUGUAGUAGACGAGGAGGAGGAUUAUCGAAUUUUCGGCGGAUGCCUCCAAA,0.00606 ± 0.0026
14,AUAAAAGCGCCAGAACUACAGAAAUGUAAUUUACGAGGAGGAGGUUUAUAGAAUUUUCGGCGGAUGCGUCCAAA,0.000193 ± 6e-05
15,AUAAAAGCGCCAGAACUACAGAAAUGUAGUUGCCGAGGAGGAGGUUUAUCGAAUUUUCGGCGGAUGCGUCCAAA,< 1e-05
16,AUAAAAGCGCCAGGGCUACAGAAAUGUAGUUGUCGAGGAGGAGGUUUAUCGAAUUUUCGGCGGAUGCCUCCAAA,8.09e-05 ± 1.9e-05
17,AUAAAAGCGCUUGAACUACAGAAAUGUAGUUGACGAGGAGGAGGUGUAUCGAAUUUUCGGCGGAUGCCUUCAAA,0.000953 ± 0.00017
18,AUAAAAGCGCCAGAACUACAGAAAUGUAGUUGACAAGGAGGAGGUUUAUCGAAUUUUCGCGGGCUACCUCCAAA,< 1e-05
